Target: T1, human CD3 expressed on cells (human, UniProt P07766 23-207; P04234 22-171; P09693 23-182)
T1 construct: whole, on cells; CD3 complex on Jurkat cells and on human primary T cells
Test: flow cytometry, 25 nM
Protocol: Purified antibodies were confirmed to bind CD3 expressed on cells using the CytoFLEX S or LX flow cytometers (Beckman Coulter). Antibodies were diluted to 25 nM in FACS buffer (PBS+2% FBS) and were incubated with CD3-expressing cells for 30 minutes at 4° C. […] The median fluorescence intensity of the binding signal for each antibody was normalized to the isotype control to obtain a fold over isotype value. An antibody with a fold over isotype (FOI) of ≥10 was considered to be positive for binding.

T1 sequence (P07766 23-207, chain 1 of 3): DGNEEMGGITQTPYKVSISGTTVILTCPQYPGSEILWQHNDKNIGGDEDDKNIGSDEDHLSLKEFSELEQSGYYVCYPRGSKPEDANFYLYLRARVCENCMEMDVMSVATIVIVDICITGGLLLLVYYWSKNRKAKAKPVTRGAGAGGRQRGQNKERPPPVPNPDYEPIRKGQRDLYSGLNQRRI
T1 sequence (P04234 22-171, chain 2 of 3): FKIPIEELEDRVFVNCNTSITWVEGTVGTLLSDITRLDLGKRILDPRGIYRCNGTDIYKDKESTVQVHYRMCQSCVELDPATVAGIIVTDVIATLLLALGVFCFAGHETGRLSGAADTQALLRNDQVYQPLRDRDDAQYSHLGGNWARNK
T1 sequence (P09693 23-182, chain 3 of 3): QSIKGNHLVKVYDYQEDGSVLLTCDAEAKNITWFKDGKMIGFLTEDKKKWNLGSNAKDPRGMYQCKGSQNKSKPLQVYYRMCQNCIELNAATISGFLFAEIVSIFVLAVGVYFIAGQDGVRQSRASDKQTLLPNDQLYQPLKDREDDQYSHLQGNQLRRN

Human primary T Cell Binding (FOI) | Jurkat Cell Binding (FOI) | Binder
148 FOI | 135 FOI | mAb 140 (antibody, V domains shown) VH: QVQLVESGGGVVQPGRSLRLSCAASGFTFSTYGMHWVRQAPGKGLEWVAVIWYDGSHKYYADSVKGRFTISRDNSKNTLYLQMNSLRAEDTAVYYCARTGITGTTAYFYFDYWGQGTLVTVSS VL: not shown
157 FOI | 139 FOI | mAb 144 (antibody, V domains shown) VH: QVQLVESGGYVVQPGRSLRLSCAASGFTFSNFGMHWVRQAPGKGLEWVAVIWYDGSHKYYADSVKGRFTISRDNSKNTLYLQMNSLRAEDTAVYYCARTGITGTTAYFYFDYWGQGTLVTVSS VL: not shown
340 FOI | 194 FOI | mAb 146 (antibody, V domains shown) VH: QVQLVESGGGVVQPGRSLRLSCAASGFTFITYGMHWVRQAPGKGLEWVAVIWYDGSHKYYADSVKGRFTISRDNSKNMLYLQMNSLRVEDTAVYYCARTGITGTTAYFYFDNWGQGTLVTVSS VL: not shown
170 FOI | 106 FOI | mAb 161 (antibody, V domains shown) VH: EVQLVESGGGLVQPGRSLRLSCAASGITFADYTMHWVRQAPGKGLEWVSGISWNSGSIDYADSVKGRFTISRDNAKKTLYLQMNRLRAEDTALYYCAKDSSGYGHYYFYYLDVWGKGTTVTVSS VL: EIVMTQSPATLSVSPGERATLSCRASQSVSNNLAWYQQKPGQAPRLLIYSTSTRATGIPARFSGSRSGTEFTLTISSLQSEDSAVYYCQQYNNWPHFGQGTRLEIK
83.3 FOI | 108 FOI | mAb 43 (antibody, V domains shown) VH: QAQLVQSGSELKKPGASVKVSCKASGYTFTKHSMNWVRQAPGQGLEWMGWINTNTGNPMYAQGFTGRFVFSLDTSVTTAYLQISSLKAEDTAVYYCAREGDYDFWSGFFNFDYWGQGTLVTVSS VL: DIQMTQSPSSLSASVGDRVTITCRASQGIRNDLGWYQQKPGKAPKRLIYAASSLQSGVPSRFSGSGSGAEFTLTISSLQPEDFATYYCLQHNSYPRTFGQGTKVEIK
167 FOI | 124 FOI | mAb 167 (antibody, V domains shown) VH: EVHLVESGGGLVQPGRSLRLSCAASGFTFDDYAMHWVRQAPGKGLEWVSGISWNSGTIGYADSVKGRFTISRDNAKNSLYLEMNSLRAEDTALYYCAKDSSGYGHYYHYYIDVWGTGTTVTVSS VL: EIVMTQSPATLSVSPGGRATLSCRASQSVGSNLAWYQQKPGQAPRLLIYDASTRATGIPARFRGSGSGTEFTLTISGLQSEDFAVYYCQLYYNWPHFGQGTRLEIK
117 FOI | 113 FOI | mAb 68 (antibody, V domains shown) VH: EVQLVDSGGGLVQPGGSLRLSCSGSGFTFSSYWMSWVRQAPGKGLEWVANIKQDGSQKYYVDSVKGRFTISRDNVKNSLYLQMNSLRVEDTAVYYCARDESSSWYWYFDLWGRGTLVTVSS VL: DIQMTQSPSTLSASVGDRVTLTCRASQNIVKWLAWYQQKPGKAPKLLIYKASSLESGVPSWFSGSGSGTEFTLTINSLQPDDFATYYCQQYYTYSRTFGQGTKVEIK
125 FOI | 106 FOI | mAb 77 (antibody, V domains shown) VH: EVQLVESGGGLVQPGGSLRLSCAASGFTFSNYWMSWVRQAPGKGLEWVANIKQDGSEKYYVDSVRGRFTISRDNAKKSLYLQMNSLRAEDTAVYYCARDNSNYAYWYFDIWGRGTLVTVSS VL: DIQMTQSPSTLSVSVGDRVTITCRASQSIRKWLAWYQQKPGKAPKLLIFKASSLESGVPSRFSGSGSGTEFTLTISSLQPDDFATYYCQQYDTYSRTFGQGTKVEIK
